Target: Sulfolobus acidocaldarius R2-like ligand-binding oxidase (Sulfolobus acidocaldarius)
Experiment: crystal structure

stoichiometry N: 2
Substance: Sulfolobus acidocaldarius R2-like ligand-binding oxidase (enzyme)
